Article PMC9243006

Biological target: purified complement factor H protein (UniProt P06909)
Test: SPR; CFH immobilised by amine coupling on a sensor chip; rTraT at 80, 40, 20, 10, 5 or 2.5 µg/ml

UniProt P06909, sequence (P06909 19-1234): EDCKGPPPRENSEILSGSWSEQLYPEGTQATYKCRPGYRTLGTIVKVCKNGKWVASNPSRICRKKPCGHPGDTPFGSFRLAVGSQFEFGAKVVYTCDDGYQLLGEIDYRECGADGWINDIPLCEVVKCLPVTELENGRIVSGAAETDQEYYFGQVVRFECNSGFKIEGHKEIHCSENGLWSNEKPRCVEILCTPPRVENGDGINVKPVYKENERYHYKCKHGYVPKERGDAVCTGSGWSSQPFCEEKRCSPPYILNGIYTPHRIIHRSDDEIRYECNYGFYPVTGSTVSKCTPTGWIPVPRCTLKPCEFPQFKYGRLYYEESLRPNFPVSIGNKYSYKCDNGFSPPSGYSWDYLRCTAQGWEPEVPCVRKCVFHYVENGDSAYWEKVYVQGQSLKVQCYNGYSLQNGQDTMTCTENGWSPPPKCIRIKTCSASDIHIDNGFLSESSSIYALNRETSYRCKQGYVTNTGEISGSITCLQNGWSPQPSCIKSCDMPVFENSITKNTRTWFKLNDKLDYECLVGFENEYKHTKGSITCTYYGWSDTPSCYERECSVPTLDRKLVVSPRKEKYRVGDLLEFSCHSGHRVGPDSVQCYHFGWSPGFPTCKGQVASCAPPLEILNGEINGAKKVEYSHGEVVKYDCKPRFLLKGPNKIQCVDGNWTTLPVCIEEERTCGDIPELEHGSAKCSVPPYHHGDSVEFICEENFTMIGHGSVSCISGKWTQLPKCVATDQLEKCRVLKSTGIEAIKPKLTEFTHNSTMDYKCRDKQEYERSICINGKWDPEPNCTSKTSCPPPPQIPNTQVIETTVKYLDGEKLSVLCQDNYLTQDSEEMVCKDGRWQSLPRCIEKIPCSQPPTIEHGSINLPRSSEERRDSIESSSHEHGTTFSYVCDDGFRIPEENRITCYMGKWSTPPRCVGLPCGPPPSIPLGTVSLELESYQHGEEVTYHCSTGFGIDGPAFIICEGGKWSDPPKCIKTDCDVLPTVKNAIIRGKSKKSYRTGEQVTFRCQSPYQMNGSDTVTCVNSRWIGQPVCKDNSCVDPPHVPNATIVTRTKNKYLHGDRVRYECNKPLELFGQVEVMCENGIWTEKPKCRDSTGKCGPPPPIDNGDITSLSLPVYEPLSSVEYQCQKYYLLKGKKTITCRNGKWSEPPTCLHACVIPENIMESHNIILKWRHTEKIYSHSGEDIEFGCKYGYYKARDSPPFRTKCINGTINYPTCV

Substance: recombinant TraT (rTraT) (domain or fragment)
- Kd: 3.15 µM
